Measured values published in publication PMC4735526 (Nature Communications, 2016).

T1: T-STAR STAR (UniProt O75525 1-183)
T1 sequence: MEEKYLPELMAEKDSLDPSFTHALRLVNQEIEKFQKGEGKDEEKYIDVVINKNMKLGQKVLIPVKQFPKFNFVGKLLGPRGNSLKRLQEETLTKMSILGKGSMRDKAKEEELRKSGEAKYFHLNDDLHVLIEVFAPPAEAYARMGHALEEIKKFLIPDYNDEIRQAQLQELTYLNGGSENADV

T2: T-STAR QUA1-KH (UniProt O75525 1-160)
T2 sequence: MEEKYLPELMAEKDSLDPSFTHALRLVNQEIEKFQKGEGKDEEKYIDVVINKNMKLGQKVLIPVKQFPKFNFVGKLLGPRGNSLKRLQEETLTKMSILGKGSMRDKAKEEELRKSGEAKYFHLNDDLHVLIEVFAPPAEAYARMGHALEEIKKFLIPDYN

T3: T-STAR QUA1-KH Y141E (UniProt O75525 1-160, Y141E)
T3 sequence: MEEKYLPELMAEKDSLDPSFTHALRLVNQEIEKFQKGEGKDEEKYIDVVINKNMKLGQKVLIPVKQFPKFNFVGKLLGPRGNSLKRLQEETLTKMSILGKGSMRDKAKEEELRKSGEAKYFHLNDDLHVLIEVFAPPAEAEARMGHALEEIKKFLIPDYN

T4: T-STAR STAR Y141E (UniProt O75525 1-183, Y141E)
T4 sequence: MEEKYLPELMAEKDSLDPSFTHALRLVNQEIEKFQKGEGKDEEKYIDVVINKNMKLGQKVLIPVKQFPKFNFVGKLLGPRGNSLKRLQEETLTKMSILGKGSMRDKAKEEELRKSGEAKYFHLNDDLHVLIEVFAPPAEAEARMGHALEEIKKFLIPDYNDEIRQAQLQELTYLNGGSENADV

T5: T-STAR KH (UniProt O75525 50-160)
T5 sequence: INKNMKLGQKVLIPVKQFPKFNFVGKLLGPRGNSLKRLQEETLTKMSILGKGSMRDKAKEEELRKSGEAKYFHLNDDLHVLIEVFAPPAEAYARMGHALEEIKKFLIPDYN

T6: T-STAR KH-QUA2 (UniProt O75525 50-183)
T6 sequence: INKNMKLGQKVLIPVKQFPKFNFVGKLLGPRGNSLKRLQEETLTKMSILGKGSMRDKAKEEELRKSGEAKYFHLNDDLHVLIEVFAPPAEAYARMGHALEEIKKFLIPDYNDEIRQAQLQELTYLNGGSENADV


Legend:
[1] = target: Sam68 QUA1-KH domain (human); test: SAXS; 25 °C, 1-20 mg/ml protein in the NMR buffers, in the absence and presence of AAAUAA RNA (10 mg/ml protein, protein/RNA 1:1); molecular weights from Porod volumes
T-STAR STAR [2] = target: T1, T-STAR STAR; test: fluorescence polarization; 10 mM Tris pH 7, 100 mM NaCl, 0.1% beta-mercaptoethanol; 0.2 uM fluorescein-labelled RNA; protein 0-200 uM; temperature not stated
Sam68 QUA1-KH = Sam68 QUA1-KH (UniProt Q07666 97-260); test: as above
T-STAR QUA1-KH [3] = target: T2, T-STAR QUA1-KH; test: as above
Sam68 QUA1-KH Y241E = Sam68 QUA1-KH Y241E (UniProt Q07666 97-260, Y241E); test: as above
T-STAR QUA1-KH Y141E = target: T3, T-STAR QUA1-KH Y141E; test: as above
T-STAR STAR Y141E = target: T4, T-STAR STAR Y141E; test: as above
Sam68 STAR [4] = target: T7, Sam68 STAR (UniProt Q07666 97-283); test: as above
T-STAR QUA1-KH [5] = target: T2, T-STAR QUA1-KH; test: X-ray crystallography; FP: 10 mM Tris pH 7, 100 mM NaCl, 0.1% beta-mercaptoethanol, 0.2 uM fluorescein-RNA, protein 0-200 uM, temperature not stated; NMR 303 K: Sam68 in 10 mM Tris pH
T-STAR KH = target: T5, T-STAR KH; test: as above
[6] = target: the molecule itself; test: crystal structure; T-STAR constructs in complex with short RNAs (protein/RNA 1:2), sitting drop vapour diffusion at 4 °C; protein in 10 mM Tris pH 7.0, 50 mM NaCl
T-STAR KH-QUA2 = target: T6, T-STAR KH-QUA2; test: X-ray crystallography; FP: 10 mM Tris pH 7, 100 mM NaCl, 0.1% beta-mercaptoethanol, 0.2 uM fluorescein-RNA, protein 0-200 uM, temperature not stated; NMR 303 K: Sam68 in 10 mM Tris pH
[7] = target: the molecule itself; test: SAXS; 25 °C, 1-20 mg/ml protein in the NMR buffers, in the absence and presence of AAAUAA RNA (10 mg/ml protein, protein/RNA 1:1); molecular weights from Porod volumes
T-STAR STAR [8] = target: T1, T-STAR STAR; test: X-ray crystallography; FP: 10 mM Tris pH 7, 100 mM NaCl, 0.1% beta-mercaptoethanol, 0.2 uM fluorescein-RNA, protein 0-200 uM, temperature not stated; NMR 303 K: Sam68 in 10 mM Tris pH
Sam68 STAR [9] = target: T7, Sam68 STAR; test: NMR chemical shift perturbation; FP: 10 mM Tris pH 7, 100 mM NaCl, 0.1% beta-mercaptoethanol, 0.2 uM fluorescein-RNA, protein 0-200 uM, temperature not stated; NMR 303 K: Sam68 in 10 mM Tris pH

Molecule	Kd (T-STAR STAR [2]) [µM]	Kd (Sam68 QUA1-KH) [µM]	Kd (T-STAR QUA1-KH [3]) [µM]	also measured
Sam68 QUA1-KH domain (domain or fragment)				stoichiometry N [1]: 2
UAAACCCCCCCCCCUAAA (ssRNA) [UAAA-C10-UAAA]	7	37.3	8.6	Kd (Sam68 QUA1-KH Y241E): 3.9 µM; Kd (T-STAR QUA1-KH Y141E): 4.4 µM; Kd (T-STAR STAR Y141E): 4.9 µM
UCCGGAUUGGCCUAAAUAGAUGCGCGAUAAUAAUAGAGUA (ssRNA) [G7.1]	5.4	4.3	4.5	Kd (Sam68 STAR [4]): 8.2 µM
UAAACCC (ssRNA)	7	50	7.9	Kd (Sam68 QUA1-KH Y241E): 27.1 µM; Kd (T-STAR QUA1-KH Y141E): 10.9 µM; Kd (T-STAR STAR Y141E): 6.8 µM
UAAU (ssRNA)				binding result (T-STAR QUA1-KH [5]): binds
UAAACCCCCCCCCCCCCCCUAAA (ssRNA) [UAAA-C15-UAAA]	6.7	26.3	6.8	Kd (Sam68 QUA1-KH Y241E): 4 µM; Kd (T-STAR QUA1-KH Y141E): 4.7 µM; Kd (T-STAR STAR Y141E): 4.7 µM
UAAACCCCCUAAA (ssRNA) [UAAA-C5-UAAA]	5.9	42.7	5.5	Kd (Sam68 QUA1-KH Y241E): 4.6 µM; Kd (T-STAR QUA1-KH Y141E): 5.3 µM; Kd (T-STAR STAR Y141E): 5.1 µM
AUAAA (ssRNA)		55	37	
AUAAU (ssRNA)		49	45	
AAAUAA (ssRNA)				binding result (T-STAR KH): binds
ACAAA (ssRNA)			55	
T-STAR KH domain (amino acids 50-160) (domain or fragment, human, UniProt O75525 50-160, looked up, T-STAR/SLM2, human, KH domain, residues 50-160; The free KH structure (5EL3) was phased from a SeMet-labelled KH domain; the complex with AAAUAA is 5ELS; source: E. coli Rosetta BL21 DE3, purified (Ni-NTA, TEV cleavage, size-exclusion chromatography); not shown: His tag (inferred from the Ni-NTA purification)) INKNMKLGQKVLIPVKQFPKFNFVGKLLGPRGNSLKRLQEETLTKMSILGKGSMRDKAKEEELRKSGEAKYFHLNDDLHVLIEVFAPPAEAYARMGHALEEIKKFLIPDYN				binding result [6]: binds
CCCAAUUAACUAACUAACUAACUUUAAAA (ssRNA) [Nrxn2]	1.1	2.2	1.7	Kd (Sam68 STAR [4]): 3.7 µM
AAUAAU (ssRNA)				binding result (T-STAR KH-QUA2): binds
T-STAR QUA1-KH domain (domain or fragment, human, T-STAR/SLM2, human, QUA1 and KH domains with the linker between them; by the limits of the STAR (1-183) and KH (50-160) constructs they may be 1-160 (surmised); source: E. coli Rosetta BL21 DE3, purified (Ni-NTA, TEV cleavage, size-exclusion chromatography); not shown: His tag (inferred from the Ni-NTA purification)) MEEKYLPELMAEKDSLDPSFTHALRLVNQEIEKFQKGEGKDEEKYIDVVINKNMKLGQKVLIPVKQFPKFNFVGKLLGPRGNSLKRLQEETLTKMSILGKGSMRDKAKEEELRKSGEAKYFHLNDDLHVLIEVFAPPAEAYARMGHALEEIKKFLIPDYN				stoichiometry N [7]: 2
AAAAA (ssRNA)		13	6	
Sam68 STAR domain (amino acids 97-283) (domain or fragment, human, UniProt Q07666 97-283, looked up, Sam68 (Src-associated protein in mitosis of 68 kDa), human, STAR domain (QUA1, KH, QUA2), residues 97-283; also called Src-associated protein in mitosis of 68 kDa; source: E. coli Rosetta BL21 DE3, purified (Ni-NTA, TEV cleavage, size-exclusion chromatography); not shown: His tag (inferred from the Ni-NTA purification)) MEPENKYLPELMAEKDSLDPSFTHAMQLLTAEIEKIQKGDSKKDDEENYLDLFSHKNMKLKERVLIPVKQYPKFNFVGKILGPQGNTIKRLQEETGAKISVLGKGSMRDKAKEEELRKGGDPKYAHLNMDLHVFIEVFGPPCEAYALMAHAMEEVKKFLVPDMMDDICQEQFLELSYLNGVPEPSRG				stoichiometry N [7]: 2
UUAAA (ssRNA)		50	16	
SRE-4 (ssRNA) RNA: UUUGGGGGUUCAAUAAAAAUUUUCACUAUCCUAUUAACAGUUCCGCCGCUCC	8.5	19.1	9.4	Kd (Sam68 STAR [4]): 65.7 µM
AUUAAA (ssRNA)				binding result (T-STAR STAR [8]): binds; binding result (Sam68 STAR [9]): binds
CUAAA (ssRNA)		34	18	
CUGGGUGACACACUAGCUAUAGCAUUAAAAGACCGAGCAAGU (ssRNA) [G8.5]	11.7	10.3	8.1	Kd (Sam68 STAR [4]): 36.1 µM
AUAAC (ssRNA)			47	
T-STAR STAR domain (amino acids 1-183) (domain or fragment, human, UniProt O75525 1-183, looked up, Crystallised with AUUAAA RNA; QUA2 region not seen in the electron density; also called SLM2; source: E. coli Rosetta BL21 DE3, purified (Ni-NTA, TEV cleavage, size-exclusion chromatography); not shown: His tag (inferred from the Ni-NTA purification)) MEEKYLPELMAEKDSLDPSFTHALRLVNQEIEKFQKGEGKDEEKYIDVVINKNMKLGQKVLIPVKQFPKFNFVGKLLGPRGNSLKRLQEETLTKMSILGKGSMRDKAKEEELRKSGEAKYFHLNDDLHVLIEVFAPPAEAYARMGHALEEIKKFLIPDYNDEIRQAQLQELTYLNGGSENADV				stoichiometry N [7]: 2
T-STAR KH-QUA2 domain (amino acids 50-183) (domain or fragment, human, UniProt O75525 50-183, looked up, T-STAR/SLM2, human, KH and QUA2 domains, residues 50-183; Crystallised with AAUAAU RNA; QUA2 not seen in the electron density; source: E. coli Rosetta BL21 DE3, purified (Ni-NTA, TEV cleavage, size-exclusion chromatography); not shown: His tag (inferred from the Ni-NTA purification)) INKNMKLGQKVLIPVKQFPKFNFVGKLLGPRGNSLKRLQEETLTKMSILGKGSMRDKAKEEELRKSGEAKYFHLNDDLHVLIEVFAPPAEAYARMGHALEEIKKFLIPDYNDEIRQAQLQELTYLNGGSENADV				binding result [6]: binds
